The values that follow come from patent US20240076348A1.

The experiment addresses Colony-stimulating factor-1 receptor (CSF-1R), encoded by c-fms (UniProt P07333). Description: cell-based or functional assay.

Turning to “C34B pCAR (CSF1-28z plus IL34-41BB), expressed on human T-cells (from UniProt P09603 33-190; Q6ZMJ4 21-242)”, the tumour cell killing on repeated re-stimulation, MTT assay on T47D FMS and T47D monolayers (iterative cycles of re-stimulation) was under 13.
